From publication PMC8363014, “OsMADS23 phosphorylated by SAPK9 confers drought and salt tolerance by regulating ABA biosynthesis in rice” come the findings set out here.

First the molecules themselves.
B1: OsNCED2-c (probe 3) (dsDNA)
DNA 1: GGGGCTAATAATTAGCCTTCCAAAATTTTGCTATTTATAAGTA
DNA 2: TACTTATAAATAGCAAAATTTTGGAAGGCTAATTATTAGCCCC
modifications: 3' biotin
B2: OsNCED2-b (probe 2) (dsDNA)
DNA 1: GGGGTTGTCTATGTAACATATAATTGGATATATATTCATTCC
DNA 2: GGAATGAATATATATCCAATTATATGTTACATAGACAACCCC
modifications: 3' biotin
B3: OsNCED2-a (probe 1) (dsDNA)
DNA 1: AACATTCTATCCCATAAAATTGTGTTTTGTTGCAAATGTCC
DNA 2: GGACATTTGCAACAAAACACAATTTTATGGGATAGAATGTT
modifications: 3' biotin

The target of this data set is OsMADS23 (Oryza sativa (rice), UniProt Q6VAM4 1-159). Briefly: EMSA; signal reduced by excess unlabeled probe; LightShift Chemiluminescent EMSA kit (Thermo), manufacturer's instructions; buffer, salt, pH and temperature not stated. As to conditions: protein: recombinant; tags: His, trigger factor (pCold-TF); chain copies: 2; label: biotin; blunt. (In general: Mobility shift assays separate free from complexed probe on a gel.)
Chain of OsMADS23 (Q6VAM4 whole entry): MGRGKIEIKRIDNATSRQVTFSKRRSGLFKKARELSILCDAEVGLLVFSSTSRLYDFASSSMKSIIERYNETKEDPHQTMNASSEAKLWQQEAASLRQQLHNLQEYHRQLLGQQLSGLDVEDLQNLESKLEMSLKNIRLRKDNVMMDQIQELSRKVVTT
Consider B1, for which the binding result is “binds”.

In the case of B2, the binding result is given as “binds”.

Turning to B3, the binding result is “binds”.
